Experimental data: paper doi:10.1101/2023.11.28.568818 (bioRxiv, 2023)

Target: the molecule itself
Assay: ThT fluorescence + negative stain TEM

Protein | binding result
VLGGGSVQIVYKPV [jΔR3-P301L peptide (tau 300-313 with P301L)] | binds
DNIKHVPGGGSVQIVYKPV [jR2R3 peptide (tau residues 295-313)] | binds
VPGGGSVQIVYKPV [jΔR3 peptide (C-terminal half of jR2R3, tau 300-313)] | binds
